Test results: the supplement of paper PMC11246515
± gives the standard deviation of the averaged measurements.

Experiment: total protein half-life in vivo (active degradation + dilution); higher = more stable protein
[1] = E. coli NCM3722 delta-clpP delta-lon delta-hslV, growth: N-lim chemostat, doubling time 6 h
[2] = E. coli NCM3722 delta-clpP, growth: N-lim chemostat, doubling time 6 h
[3] = E. coli NCM3722 delta-hslV, growth: N-lim chemostat, doubling time 6 h
[4] = E. coli NCM3722 delta-lon, growth: N-lim chemostat, doubling time 6 h
[5] = E. coli NCM3722 delta-smpB, growth: N-lim chemostat, doubling time 6 h
[6] = wild type E. coli NCM3722, growth: C-lim chemostat, doubling time 3 h
[7] = wild type E. coli NCM3722, growth: C-lim chemostat, doubling time 6 h
[8] = wild type E. coli NCM3722, growth: C-lim chemostat, doubling time 12 h
[9] = wild type E. coli NCM3722, growth: N-lim chemostat, doubling time 6 h
[10] = wild type E. coli NCM3722, growth: N-lim chemostat, doubling time 12 h
[11] = wild type E. coli NCM3722, growth: P-lim chemostat, doubling time 6 h
[12] = wild type E. coli NCM3722, growth: P-lim chemostat, doubling time 12 h

Row | Sequence | total protein half-life in vivo [1] [h] | total protein half-life in vivo [2] [h] | total protein half-life in vivo [3] [h] | total protein half-life in vivo [4] [h] | total protein half-life in vivo [5] [h] | total protein half-life in vivo [6] [h] | total protein half-life in vivo [7] [h] | total protein half-life in vivo [8] [h] | total protein half-life in vivo [9] [h] | total protein half-life in vivo [10] [h] | total protein half-life in vivo [11] [h] | total protein half-life in vivo [12] [h]
1 | MPFTLGQRWISDTESELGLGTVVAVDARTVTLLFPSTGENRLYARSDSPVTRVMFNPGDTITSHDGWQMQVEEVKEENGLLTYIGTRLDTEESGVALREVFLDSKLVFSKPQDRLFAGQIDRMDRFALRYRARKYSSEQFRMPYSGLRGQRTSLIPHQLNIAHDVGRRHAPRVLLADEVGLGKTIEAGMILHQQLLSGAAERVLIIVPETLQHQWLVEMLRRFNLRFALFDDERYAEAQHDAYNPFDTEQLVICSLDFARRSKQRLEHLCEAEWDLLVVDEAHHLVWSEDAPSREYQAIEQLAEHVPGVLLLTATPEQLGMESHFARLRLLDPNRFHDFAQFVEEQKNYRPVADAVAMLLAGNKLSNDELNMLGEMIGEQDIEPLLQAANSDSEDAQSARQELVSMLMDRHGTSRVLFRNTRNGVKGFPKRELHTIKLPLPTQYQTAIKVSGIMGARKSAEDRARDMLYPERIYQEFEGDNATWWNFDPRVEWLMGYLTSHRSQKVLVICAKAATALQLEQVLREREGIRAAVFHEGMSIIERDRAAAWFAEEDTGAQVLLCSEIGSEGRNFQFASHMVMFDLPFNPDLLEQRIGRLDRIGQAHDIQIHVPYLEKTAQSVLVRWYHEGLDAFEHTCPTGRTIYDSVYNDLINYLASPDQTEGFDDLIKNCREQHEALKAQLEQGRDRLLEIHSNGGEKAQALAESIEEQDDDTNLIAFAMNLFDIIGINQDDRGDNMIVLTPSDHMLVPDFPGLSEDGITITFDREVALAREDAQFITWEHPLIRNGLDLILSGDTGSSTISLLKNKALPVGTLLVELIYVVEAQAPKQLQLNRFLPPTPVRMLLDKNGNNLAAQVEFETFNRQLNAVNRHTGSKLVNAVQQDVHAILQLGEAQIEKSARALIDAARNEADEKLSAELSRLEALRAVNPNIRDDELTAIESNRQQVMESLDQAGWRLDALRLIVVTHQ | 5.68 ± 0.18 | 5.48 ± 0.61 | 5.139 ± 0.024 | 5.36 ± 0.42 | 5.21 ± 0.39 | 3.11 ± 0.088 | 6.26 ± 0.79 | 12.5 ± 1.6 | 5.09 ± 0.06 | 9.51 ± 1.1 | 6.156 ± 0.013 | 12.1 ± 1.1
2 | MSFTRRKFVLGMGTVIFFTGSASSLLANTRQEKEVRYAMIHDESRCNGCNICARACRKTNHVPAQGSRLSIAHIPVTDNDNETQYHFFRQSCQHCEDAPCIDVCPTGASWRDEQGIVRVEKSQCIGCSYCIGACPYQVRYLNPVTKVADKCDFCAESRLAKGFPPICVSACPEHALIFGREDSPEIQAWLQQNKYYQYQLPGAGKPHLYRRFGQHLIKKENV | 4.71 ± 0.073 | – | – | – | – | – | – | – | – | – | – | 15.8
3 | MSSSCIEEVSVPDDNWYRIANELLSRAGIAINGSAPADIRVKNPDFFKRVLQEGSLGLGESYMDGWWECDRLDMFFSKVLRAGLENQLPHHFKDTLRIAGARLFNLQSKKRAWIVGKEHYDLGNDLFSRMLDPFMQYSCAYWKDADNLESAQQAKLKMICEKLQLKPGMRVLDIGCGWGGLAHYMASNYDVSVVGVTISAEQQKMAQERCEGLDVTILLQDYRDLNDQFDRIVSVGMFEHVGPKNYDTYFAVVDRNLKPEGIFLLHTIGSKKTDLNVDPWINKYIFPNGCLPSVRQIAQSSEPHFVMEDWHNFGADYDTTLMAWYERFLAAWPEIADNYSERFKRMFTYYLNACAGAFRARDIQLWQVVFSRGVENGLRVAR [P0A9H7] | 2.09 ± 0.32 | 0.86 ± 0.041 | 0.465 ± 0.078 | 0.662 ± 0.29 | 0.503 ± 0.04 | 0.474 ± 0.077 | 0.6003 ± 0.0022 | 0.871 ± 0.26 | 0.643 ± 0.12 | 0.868 ± 0.22 | 0.649 ± 0.26 | 1.27 ± 0.76
4 | MNQRNASMTVIGAGSYGTALAITLARNGHEVVLWGHDPEHIATLERDRCNAAFLPDVPFPDTLHLESDLATALAASRNILVVVPSHVFGEVLRQIKPLMRPDARLVWATKGLEAETGRLLQDVAREALGDQIPLAVISGPTFAKELAAGLPTAISLASTDQTFADDLQQLLHCGKSFRVYSNPDFIGVQLGGAVKNVIAIGAGMSDGIGFGANARTALITRGLAEMSRLGAALGADPATFMGMAGLGDLVLTCTDNQSRNRRFGMMLGQGMDVQSAQEKIGQVVEGYRNTKEVRELAHRFGVEMPITEEIYQVLYCGKNAREAALTLLGRARKDERSSH [P0A6S7] | 5.183 ± 0.013 | 5.35 ± 0.8 | 4.8 ± 0.097 | 4.88 ± 0.27 | 4.73 ± 0.34 | 3.3022 ± 0.00023 | 5.8 ± 0.063 | 10.8 ± 1.8 | 4.99 ± 0.28 | 8.16 | 5.73 ± 0.15 | 12.7 ± 2.1
5 | MSRKQLALFEPTLVVQALKEAVKKLNPQAQWRNPVMFIVWIGSLLTTCISIAMASGAMPGNALFSAAISGWLWITVLFANFAEALAEGRSKAQANSLKGVKKTAFARKLREPKYGAAADKVPADQLRKGDIVLVEAGDIIPCDGEVIEGGASVDESAITGESAPVIRESGGDFASVTGGTRILSDWLVIECSVNPGETFLDRMIAMVEGAQRRKTPNEIALTILLIALTIVFLLATATLWPFSAWGGNAVSVTVLVALLVCLIPTTIGGLLSAIGVAGMSRMLGANVIATSGRAVEAAGDVDVLLLDKTGTITLGNRQASEFIPAQGVDEKTLADAAQLASLADETPEGRSIVILAKQRFNLRERDVQSLHATFVPFTAQSRMSGINIDNRMIRKGSVDAIRRHVEANGGHFPTDVDQKVDQVARQGATPLVVVEGSRVLGVIALKDIVKGGIKERFAQLRKMGIKTVMITGDNRLTAAAIAAEAGVDDFLAEATPEAKLALIRQYQAEGRLVAMTGDGTNDAPALAQADVAVAMNSGTQAAKEAGNMVDLDSNPTKLIEVVHIGKQMLMTRGSLTTFSIANDVAKYFAIIPAAFAATYPQLNALNIMCLHSPDSAILSAVIFNALIIVFLIPLALKGVSYKPLTASAMLRRNLWIYGLGGLLVPFIGIKVIDLLLTVCGLV | – | 5.05 | 5.02 | 6.41 | 3.79 | 2.79 | – | 11.5 | – | 7.13 ± 1.7 | 7.01 ± 1.2 | 10.4 ± 0.27
6 | MAIEQTAITRATFDEVILPIYAPAEFIPVKGQGSRIWDQQGKEYVDFAGGIAVTALGHCHPALVNALKTQGETLWHISNVFTNEPALRLGRKLIEATFAERVVFMNSGTEANETAFKLARHYACVRHSPFKTKIIAFHNAFHGRSLFTVSVGGQPKYSDGFGPKPADIIHVPFNDLHAVKAVMDDHTCAVVVEPIQGEGGVTAATPEFLQGLRELCDQHQALLVFDEVQCGMGRTGDLFAYMHYGVTPDILTSAKALGGGFPISAMLTTAEIASAFHPGSHGSTYGGNPLACAVAGAAFDIINTPEVLEGIQAKRQRFVDHLQKIDQQYDVFSDIRGMGLLIGAELKPQYKGRARDFLYAGAEAGVMVLNAGPDVMRFAPSLVVEDADIDEGMQRFAHAVAKVVGA | 5.24 ± 0.26 | 4.41 ± 0.43 | 4.47 ± 0.0086 | 4.76 ± 0.3 | 4.4 ± 0.099 | 3.53 ± 0.35 | 6.1 ± 0.17 | 9.18 ± 0.29 | 4.42 ± 0.3 | 7.08 ± 0.24 | 5.71 ± 0.09 | 11.36 ± 0.11
7 | MAFTPFPPRQPTASARLPLTLMTLDDWALATITGADSEKYMQGQVTADVSQMAEDQHLLAAHCDAKGKMWSNLRLFRDGDGFAWIERRSVREPQLTELKKYAVFSKVTIAPDDERVLLGVAGFQARAALANLFSELPSKEKQVVKEGATTLLWFEHPAERFLIVTDEATANMLTDKLRGEAELNNSQQWLALNIEAGFPVIDAANSGQFIPQATNLQALGGISFKKGCYTGQEMVARAKFRGANKRALWLLAGSASRLPEAGEDLELKMGENWRRTGTVLAAVKLEDGQVVVQVVMNNDMEPDSIFRVRDDANTLHIEPLPYSLEE [P0ADE8] | 5.041 ± 0.022 | 4.7 ± 0.35 | 5.202 ± 0.032 | 5.31 ± 0.23 | 4.327 ± 0.0059 | 2.8172 ± 0.0011 | 5.45 ± 0.19 | 9.03 ± 1.1 | 5.25 ± 0.67 | 7.936 ± 0.018 | 5.54 ± 0.069 | 11.3 ± 1.9
8 | MKTSLFKSLYFQVLTAIAIGILLGHFYPEIGEQMKPLGDGFVKLIKMIIAPVIFCTVVTGIAGMESMKAVGRTGAVALLYFEIVSTIALIIGLIIVNVVQPGAGMNVDPATLDAKAVAVYADQAKDQGIVAFIMDVIPASVIGAFASGNILQVLLFAVLFGFALHRLGSKGQLIFNVIESFSQVIFGIINMIMRLAPIGAFGAMAFTIGKYGVGTLVQLGQLIICFYITCILFVVLVLGSIAKATGFSIFKFIRYIREELLIVLGTSSSESALPRMLDKMEKLGCRKSVVGLVIPTGYSFNLDGTSIYLTMAAVFIAQATNSQMDIVHQITLLIVLLLSSKGAAGVTGSGFIVLAATLSAVGHLPVAGLALILGIDRFMSEARALTNLVGNGVATIVVAKWVKELDHKKLDDVLNNRAPDGKTHELSS [P0A830] | – | – | 3.58 | – | 4.23 | – | 5.59 ± 0.43 | 10.7 ± 0.59 | 5.77 | – | 5.05 | 8.47
